T1: APBA1_1, Q02410
T1 sequence (Q02410 651-752, limits assumed, looked up): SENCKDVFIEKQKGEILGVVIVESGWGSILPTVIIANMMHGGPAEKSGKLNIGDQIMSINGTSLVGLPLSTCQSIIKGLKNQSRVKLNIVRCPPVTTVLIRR

T2: APBA2_1, Q99767
T2 sequence (Q99767 563-664, limits assumed, looked up): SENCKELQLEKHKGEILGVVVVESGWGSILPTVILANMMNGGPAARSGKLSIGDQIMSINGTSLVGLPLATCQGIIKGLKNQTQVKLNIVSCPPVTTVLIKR

T3: APBA2_2, Q99767
T3 sequence (Q99767 654-744, limits assumed, looked up): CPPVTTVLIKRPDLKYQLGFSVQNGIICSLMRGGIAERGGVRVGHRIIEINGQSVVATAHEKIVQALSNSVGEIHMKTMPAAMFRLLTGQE

T4: ARHGEF11, O15085
T4 sequence (O15085 42-136, limits assumed, looked up): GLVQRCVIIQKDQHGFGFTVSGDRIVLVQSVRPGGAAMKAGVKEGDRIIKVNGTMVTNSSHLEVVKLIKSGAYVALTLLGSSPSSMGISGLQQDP

T5: DFNB31_1, Q9P202
T5 sequence (Q9P202 135-233, limits assumed, looked up): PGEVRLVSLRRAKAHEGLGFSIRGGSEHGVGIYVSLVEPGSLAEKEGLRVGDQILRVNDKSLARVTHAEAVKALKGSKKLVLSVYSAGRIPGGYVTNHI

T6: DLG3_3, Q92796
T6 sequence (Q92796 374-475, limits assumed, looked up): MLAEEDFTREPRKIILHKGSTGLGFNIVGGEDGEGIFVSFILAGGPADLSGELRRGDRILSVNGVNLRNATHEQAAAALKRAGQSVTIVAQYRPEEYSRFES

T7: GRIP1_2, Q9Y3R0
T7 sequence (Q9Y3R0 145-248, limits assumed, looked up): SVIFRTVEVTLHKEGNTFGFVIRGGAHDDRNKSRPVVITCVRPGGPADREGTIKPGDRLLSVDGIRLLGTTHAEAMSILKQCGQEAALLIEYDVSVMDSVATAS

T8: GRIP1_5, Q9Y3R0
T8 sequence (Q9Y3R0 568-668, limits assumed, looked up): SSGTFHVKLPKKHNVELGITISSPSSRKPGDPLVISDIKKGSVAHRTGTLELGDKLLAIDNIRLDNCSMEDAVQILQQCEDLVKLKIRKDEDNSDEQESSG

T9: MPDZ_5, O75970
T9 sequence (O75970 695-796, limits assumed, looked up): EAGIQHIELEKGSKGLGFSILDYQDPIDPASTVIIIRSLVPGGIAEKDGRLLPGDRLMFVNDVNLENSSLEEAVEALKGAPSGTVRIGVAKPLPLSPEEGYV

T10: MPP2, Q14168
T10 sequence (Q14168 180-250, limits assumed, looked up): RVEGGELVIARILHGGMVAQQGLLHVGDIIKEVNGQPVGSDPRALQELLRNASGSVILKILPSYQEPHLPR

T11: NHERF3_3, Q5T2W1
T11 sequence (Q5T2W1 238-333, limits assumed, looked up): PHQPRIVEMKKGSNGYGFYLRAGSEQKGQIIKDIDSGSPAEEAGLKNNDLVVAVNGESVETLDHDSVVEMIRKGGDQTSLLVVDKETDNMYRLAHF

T12: SNTB1, Q13884
T12 sequence (Q13884 107-205, limits assumed, looked up): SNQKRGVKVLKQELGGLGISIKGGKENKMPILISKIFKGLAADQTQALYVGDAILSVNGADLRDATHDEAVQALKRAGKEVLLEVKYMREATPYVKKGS


Legend:
Experiment in all cases: holdup assay
Design in all cases: key: below the threshold = too weak to quantify, mostly under pKd 3.1 to 4
Details in all cases: plain residues with an end cap or a label only (N-terminal biotin on a linker: ado-ado)
APBA1_1, Q02410 = biological target: T1, APBA1_1, Q02410
APBA2_1, Q99767 = biological target: T2, APBA2_1, Q99767
APBA2_2, Q99767 = biological target: T3, APBA2_2, Q99767
ARHGEF11, O15085 = biological target: T4, ARHGEF11, O15085
CASK, O14936 = biological target: CASK, O14936
Chain of CASK, O14936 (O14936 487-570): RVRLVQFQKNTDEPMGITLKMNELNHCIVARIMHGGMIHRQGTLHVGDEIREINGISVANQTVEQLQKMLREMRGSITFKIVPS

DFNB31_1, Q9P202 = biological target: T5, DFNB31_1, Q9P202
DLG1_2, Q12959 = biological target: DLG1_2, Q12959
Chain of DLG1_2, Q12959 (Q12959 314-412): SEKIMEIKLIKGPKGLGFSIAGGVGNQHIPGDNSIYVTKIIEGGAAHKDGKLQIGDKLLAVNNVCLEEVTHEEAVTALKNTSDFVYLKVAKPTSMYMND

DLG1_3, Q12959 = biological target: DLG1_3, Q12959
Chain of DLG1_3, Q12959 (Q12959 457-571): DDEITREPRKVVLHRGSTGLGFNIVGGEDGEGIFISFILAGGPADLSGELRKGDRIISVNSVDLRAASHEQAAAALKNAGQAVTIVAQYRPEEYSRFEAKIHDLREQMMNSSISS

DLG3_3, Q92796 = biological target: T6, DLG3_3, Q92796
DLG4_1, P78352 = biological target: DLG4_1, P78352
Chain of DLG4_1, P78352 (P78352 62-152): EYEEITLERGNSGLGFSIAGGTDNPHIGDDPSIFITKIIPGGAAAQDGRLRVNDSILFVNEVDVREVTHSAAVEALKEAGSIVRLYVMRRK

FRMPD4, Q14CM0 = biological target: FRMPD4, Q14CM0
Chain of FRMPD4, Q14CM0 (Q14CM0 67-160): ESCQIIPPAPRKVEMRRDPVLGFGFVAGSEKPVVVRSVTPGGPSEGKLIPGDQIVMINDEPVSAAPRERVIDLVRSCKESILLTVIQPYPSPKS

GOPC, Q9HD26 = biological target: GOPC, Q9HD26
GORASP2, Q9H8Y8 = biological target: GORASP2, Q9H8Y8
GRID2IP_2, A4D2P6 = biological target: GRID2IP_2, A4D2P6
Chain of GRID2IP_2, A4D2P6 (A4D2P6 272-370): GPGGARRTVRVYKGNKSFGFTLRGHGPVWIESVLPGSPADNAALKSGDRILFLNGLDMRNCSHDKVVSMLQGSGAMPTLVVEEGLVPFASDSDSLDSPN

GRIP1_2, Q9Y3R0 = biological target: T7, GRIP1_2, Q9Y3R0
GRIP1_5, Q9Y3R0 = biological target: T8, GRIP1_5, Q9Y3R0
IL16_1, Q14005 = biological target: IL16_1, Q14005
Chain of IL16_1, Q14005 (Q14005 210-306): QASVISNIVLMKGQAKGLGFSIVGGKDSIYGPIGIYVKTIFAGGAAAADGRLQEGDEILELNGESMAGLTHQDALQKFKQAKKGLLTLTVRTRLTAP

IL16_3, Q14005 = biological target: IL16_3, Q14005
Chain of IL16_3, Q14005 (Q14005 1107-1207): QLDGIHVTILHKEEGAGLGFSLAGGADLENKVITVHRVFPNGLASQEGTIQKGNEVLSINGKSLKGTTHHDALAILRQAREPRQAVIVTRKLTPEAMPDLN

LNX1_1, Q8TBB1 = biological target: LNX1_1, Q8TBB1
Chain of LNX1_1, Q8TBB1 (Q8TBB1 261-371): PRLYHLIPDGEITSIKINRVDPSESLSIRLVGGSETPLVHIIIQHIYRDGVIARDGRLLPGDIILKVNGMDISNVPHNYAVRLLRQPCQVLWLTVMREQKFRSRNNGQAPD

LNX1_2, Q8TBB1 = biological target: LNX1_2, Q8TBB1
Chain of LNX1_2, Q8TBB1 (Q8TBB1 371-470): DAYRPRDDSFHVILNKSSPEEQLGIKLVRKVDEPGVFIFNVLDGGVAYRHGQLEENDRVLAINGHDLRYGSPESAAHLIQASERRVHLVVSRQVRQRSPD

MPDZ_5, O75970 = biological target: T9, MPDZ_5, O75970
MPP2, Q14168 = biological target: T10, MPP2, Q14168
NHERF3_3, Q5T2W1 = biological target: T11, NHERF3_3, Q5T2W1
NHERF4_4, Q86UT5 = biological target: NHERF4_4, Q86UT5
Chain of NHERF4_4, Q86UT5 (Q86UT5 464-550): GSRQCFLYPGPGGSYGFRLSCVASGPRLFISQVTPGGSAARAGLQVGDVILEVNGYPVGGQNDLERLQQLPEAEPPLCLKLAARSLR

SNTB1, Q13884 = biological target: T12, SNTB1, Q13884
TJP1_3, Q07157 = biological target: TJP1_3, Q07157
Chain of TJP1_3, Q07157 (Q07157 416-512): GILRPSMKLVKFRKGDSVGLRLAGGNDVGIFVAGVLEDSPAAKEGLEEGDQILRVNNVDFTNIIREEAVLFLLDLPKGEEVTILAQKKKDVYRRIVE

Row | pKd (APBA1_1, Q02410) | pKd (APBA2_1, Q99767) | pKd (APBA2_2, Q99767) | pKd (ARHGEF11, O15085) | pKd (CASK, O14936) | pKd (DFNB31_1, Q9P202) | pKd (DLG1_2, Q12959) | pKd (DLG1_3, Q12959) | pKd (DLG3_3, Q92796) | pKd (DLG4_1, P78352) | pKd (FRMPD4, Q14CM0) | pKd (GOPC, Q9HD26) | pKd (GORASP2, Q9H8Y8) | pKd (GRID2IP_2, A4D2P6) | pKd (GRIP1_2, Q9Y3R0) | pKd (GRIP1_5, Q9Y3R0) | pKd (IL16_1, Q14005) | pKd (IL16_3, Q14005) | pKd (LNX1_1, Q8TBB1) | pKd (LNX1_2, Q8TBB1) | Binder | also measured
1 | below the threshold | below the threshold | below the threshold | below the threshold | below the threshold | below the threshold | below the threshold | below the threshold | below the threshold | below the threshold | 3.93 | below the threshold | below the threshold | below the threshold | below the threshold | below the threshold | below the threshold | below the threshold | below the threshold | below the threshold | ADRDHASDQL [CTBP1, Q13363] | pKd (MPDZ_5, O75970): below the threshold; pKd (MPP2, Q14168): below the threshold; pKd (NHERF3_3, Q5T2W1): below the threshold; pKd (NHERF4_4, Q86UT5): below the threshold; pKd (SNTB1, Q13884): below the threshold; pKd (TJP1_3, Q07157): below the threshold
2 | below the threshold | below the threshold | below the threshold | 3.83 | below the threshold | 3.8 | 4.45 | 3.57 | 3.71 | 4.12 | 3.71 | 3.62 | below the threshold | 3.76 | below the threshold | below the threshold | below the threshold | below the threshold | below the threshold | 3.49 | GSSSKEGTSV [RRBP1, Q9P2E9] | pKd (MPDZ_5, O75970): below the threshold; pKd (MPP2, Q14168): below the threshold; pKd (NHERF3_3, Q5T2W1): below the threshold; pKd (NHERF4_4, Q86UT5): 3.98; pKd (SNTB1, Q13884): 3.9; pKd (TJP1_3, Q07157): below the threshold
